Data from IntAct's records for PubMed 28712572.

Each substance was assayed against gbrap_human GABARAP (UniProt O95166).
Sequence of gbrap_human GABARAP (O95166 whole entry): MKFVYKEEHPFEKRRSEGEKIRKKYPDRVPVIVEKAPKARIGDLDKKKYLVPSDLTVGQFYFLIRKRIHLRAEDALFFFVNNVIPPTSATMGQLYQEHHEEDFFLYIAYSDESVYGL

| Substance | effect of a mutation on the interaction |
| --- | --- |
| Pericentriolar material 1 protein (Homo sapiens), Q15154 G1952F | with no effect |
| Pericentriolar material 1 protein (Homo sapiens), Q15154 G1952H | with no effect |
| Pericentriolar material 1 protein (Homo sapiens), Q15154 G1952I | with no effect |
| Pericentriolar material 1 protein (Homo sapiens), Q15154 G1952K | with no effect |
| Pericentriolar material 1 protein (Homo sapiens), Q15154 G1952L | with no effect |
| Pericentriolar material 1 protein (Homo sapiens), Q15154 G1952M | with no effect |
| Pericentriolar material 1 protein (Homo sapiens), Q15154 G1952N | with no effect |
| Pericentriolar material 1 protein (Homo sapiens), Q15154 G1952P | with no effect |
| Pericentriolar material 1 protein (Homo sapiens), Q15154 G1952Q | with no effect |
| Pericentriolar material 1 protein (Homo sapiens), Q15154 G1952R | with no effect |
| Pericentriolar material 1 protein (Homo sapiens), Q15154 G1952S | with no effect |
| Pericentriolar material 1 protein (Homo sapiens), Q15154 G1952T | with no effect |
| Pericentriolar material 1 protein (Homo sapiens), Q15154 G1952V | with no effect |
| Pericentriolar material 1 protein (Homo sapiens), Q15154 G1952W | with no effect |
| Pericentriolar material 1 protein (Homo sapiens), Q15154 G1952Y | with no effect |
| Pericentriolar material 1 protein (Homo sapiens), Q15154 I1954A | with no effect |
| Pericentriolar material 1 protein (Homo sapiens), Q15154 I1954C | with no effect |
| Pericentriolar material 1 protein (Homo sapiens), Q15154 I1954D | with no effect |
| Pericentriolar material 1 protein (Homo sapiens), Q15154 I1954E | with no effect |
| Pericentriolar material 1 protein (Homo sapiens), Q15154 I1954F | with no effect |
| Pericentriolar material 1 protein (Homo sapiens), Q15154 I1954G | with no effect |
| Pericentriolar material 1 protein (Homo sapiens), Q15154 I1954H | with no effect |
| Pericentriolar material 1 protein (Homo sapiens), Q15154 I1954K | with no effect |
| Pericentriolar material 1 protein (Homo sapiens), Q15154 I1954L | with no effect |

| Substance | effect of a mutation on the interaction |
| --- | --- |
| Pericentriolar material 1 protein (Homo sapiens), Q15154 I1954M | with no effect |
| Pericentriolar material 1 protein (Homo sapiens), Q15154 I1954N | with no effect |
| Pericentriolar material 1 protein (Homo sapiens), Q15154 I1954P | with no effect |
| Pericentriolar material 1 protein (Homo sapiens), Q15154 I1954Q | with no effect |
| Pericentriolar material 1 protein (Homo sapiens), Q15154 I1954R | with no effect |
| Pericentriolar material 1 protein (Homo sapiens), Q15154 I1954S | with no effect |
| Pericentriolar material 1 protein (Homo sapiens), Q15154 I1954T | with no effect |
| Pericentriolar material 1 protein (Homo sapiens), Q15154 I1954V | decreasing interaction strength |
| Pericentriolar material 1 protein (Homo sapiens), Q15154 I1954W | with no effect |
| Pericentriolar material 1 protein (Homo sapiens), Q15154 I1954Y | with no effect |
| Pericentriolar material 1 protein (Homo sapiens), Q15154 I1975A | with no effect |
| Pericentriolar material 1 protein (Homo sapiens), Q15154 I1975C | with no effect |
| Pericentriolar material 1 protein (Homo sapiens), Q15154 I1975D | with no effect |
| Pericentriolar material 1 protein (Homo sapiens), Q15154 I1975E | with no effect |
| Pericentriolar material 1 protein (Homo sapiens), Q15154 I1975F | with no effect |
| Pericentriolar material 1 protein (Homo sapiens), Q15154 I1975G | with no effect |
| Pericentriolar material 1 protein (Homo sapiens), Q15154 I1975H | with no effect |
| Pericentriolar material 1 protein (Homo sapiens), Q15154 I1975K | with no effect |
| Pericentriolar material 1 protein (Homo sapiens), Q15154 I1975L | with no effect |
| Pericentriolar material 1 protein (Homo sapiens), Q15154 I1975M | with no effect |
| Pericentriolar material 1 protein (Homo sapiens), Q15154 I1975N | with no effect |
| Pericentriolar material 1 protein (Homo sapiens), Q15154 I1975P | with no effect |
| Pericentriolar material 1 protein (Homo sapiens), Q15154 I1975Q | with no effect |
| Pericentriolar material 1 protein (Homo sapiens), Q15154 I1975R | with no effect |

| Substance | effect of a mutation on the interaction |
| --- | --- |
| Pericentriolar material 1 protein (Homo sapiens), Q15154 I1975S | with no effect |
| Pericentriolar material 1 protein (Homo sapiens), Q15154 I1975T | with no effect |
| Pericentriolar material 1 protein (Homo sapiens), Q15154 I1975V | with no effect |
| Pericentriolar material 1 protein (Homo sapiens), Q15154 I1975W | with no effect |
| Pericentriolar material 1 protein (Homo sapiens), Q15154 I1975Y | with no effect |
| Pericentriolar material 1 protein (Homo sapiens), Q15154 K1957A | with no effect |
| Pericentriolar material 1 protein (Homo sapiens), Q15154 K1957C | with no effect |
| Pericentriolar material 1 protein (Homo sapiens), Q15154 K1957D | with no effect |
| Pericentriolar material 1 protein (Homo sapiens), Q15154 K1957E | with no effect |
| Pericentriolar material 1 protein (Homo sapiens), Q15154 K1957F | with no effect |
| Pericentriolar material 1 protein (Homo sapiens), Q15154 K1957G | with no effect |
| Pericentriolar material 1 protein (Homo sapiens), Q15154 K1957H | with no effect |
| Pericentriolar material 1 protein (Homo sapiens), Q15154 K1957I | with no effect |
| Pericentriolar material 1 protein (Homo sapiens), Q15154 K1957L | with no effect |
| Pericentriolar material 1 protein (Homo sapiens), Q15154 K1957M | with no effect |
| Pericentriolar material 1 protein (Homo sapiens), Q15154 K1957N | with no effect |
| Pericentriolar material 1 protein (Homo sapiens), Q15154 K1957P | with no effect |
| Pericentriolar material 1 protein (Homo sapiens), Q15154 K1957Q | with no effect |
| Pericentriolar material 1 protein (Homo sapiens), Q15154 K1957R | with no effect |
| Pericentriolar material 1 protein (Homo sapiens), Q15154 K1957S | with no effect |
| Pericentriolar material 1 protein (Homo sapiens), Q15154 K1957T | with no effect |
| Pericentriolar material 1 protein (Homo sapiens), Q15154 K1957V | with no effect |
| Pericentriolar material 1 protein (Homo sapiens), Q15154 K1957W | with no effect |
